Measurements published in the Human Domainome abundance scans (Beltran et al. 2025).

B1: Histone H1t, residues 44 to 112; numbered along this chain, P22492 (parent)
chain: VSKLITEALSVSQERVGMSLVALKKALAAAGYDVEKNNSRIKLSLKSLVNKGILVQTRGTGASGSFKLS
B2: Chromodomain-helicase-DNA-binding protein 7, residues 2564 to 2605; numbered along this chain, Q9P2D1 (parent)
chain: DPDTRIPVINLEDGTRLVGEDAPKNKDLVEWLKLHPTYTVDM

Variants of: B1
Experiment: abundance fitness (aPCA) (normalised: wild type 0, dead -1); higher = more abundant; growth selection in yeast, the domain comes from the species named
Conditions: Homo sapiens

Abundance fitness of substitutions, site by site:
G61: Y -0.218, T -0.044, W -0.176, I -0.171, V -0.185, E -0.032, Q -0.081, F -0.16, R -0.188, D 0.082, N 0.055, C -0.018, P -0.144, K 0.023, S -0.07, L -0.182, H -0.006, M -0.213, A -0.103
S63: D 0.029, P -0.027, H 0.025, V -0.006, L 0.006, Y -0.204, T 0.004, N -0.113, C -0.54, Q 0.057, K -0.019, F -0.028, E 0.152, I -0.045, G 0.085, R -0.133
G59: P -0.138, K 0.001, M -0.152, H -0.13, R -0.146, V -0.09, N -0.186, I 0.119, L -0.049, F -0.074, S -0.113, Q -0.079, Y -0.222
A62: Q 0.021, R -0.072, N 0.073, T -0.006, K 0.054, G 0.104, E 0.133, D 0.008, H -0.054, P -0.013
L68: W -0.121, Q -0.327, I -0.223, M -0.082, F -0.1, E -0.099, G -0.049, C -0.202, D -0.147, H -0.369, S -0.115, Y -0.185, R -0.138, T -0.067, K -0.064, A -0.176, N -0.149
T60: R -0.126, A 0.074, V -0.038, Q -0.02, D 0.133, I -0.115, M 0.062, K 0.013, C -0.042, H -0.076, N -0.036, G -0.033, F -0.236, L -0.102, Y -0.218, P 0.025, E -0.012, W -0.123
G64: I 0.103, R -0.026, H -0.209, K 0.031, T 0.11, N -0.373, C 0.275, L 0.05, W -0.097, D -0.013, Y -0.051, A 0.196, S 0.046, M 0.165, E 0.054, V 0.154, P 0.168, Q 0.085, F -0.067
S65: A 0.031, T 0.062, K -0.049, E 0.175, H -0.084, N 0.008, R -0.285, Q 0.039, F -0.146, G -0.003
K67: W -0.246, H -0.148, C -0.096, A -0.028, M -0.066, Y -0.181, R -0.035, V -0.109, Q -0.092, I -0.192, L -0.158, F 0.06, S 0.024, T -0.193, D -0.174, P -0.202, N -0.091
F66: K -0.042, G -0.127, P -0.112, I -0.246, A 0.008, W -0.064, E -0.03, D 0.053, S -0.108, Q -0.072, Y -0.046, H -0.289, L -0.097, V -0.078, T -0.129, R -0.084, N -0.119, M -0.173
S69: Q -0.102, Y 0.171, M -0.186, D -0.192, R -0.151, W 0.173, N -0.055, E 0.119, G -0.218, V -0.093, A 0.044, H -0.465, K -0.012, T -0.029, F -0.058, C -0.246, I -0.156, P -0.115, L -0.128

Variants of: B2
Experiment: as above
Conditions: Homo sapiens

Abundance fitness, by site and new letter:
T15: D 0.018, A 0.069
T4: I -0.115, P -0.286
D13: L -0.627, V -0.421, G -0.268, H -1.01, A -0.183, N 0.046
V8: Q -0.384, I -0.433, W -0.794, C -0.577, H -0.577, Y -0.894, E -0.516, N -0.578, P -0.534, G -0.66, R -0.624, S -0.644, A -0.535, D -0.511, F -0.869, K -0.387, L -0.481
P2: C 0.148, L -0.179, D -0.301, G -0.074, T 0.179, Q 0.182, W -0.02, S 0.017, I -0.078, A -0.031, R 0.161, H -0.737, F -0.513
G14: W -0.084, S -0.141, D -0.146, E -0.012, L -0.424, M 0.114, R -0.168, F -0.277, A -0.115, N 0.152, Q 0.007, T -0.275, C -0.226
P7: K 0.082, V -0.238, R 0.064, Q -0.691, D 0.133, F -1.07, M -0.297, N -0.145, C -0.347, G 0.227, T -0.046, A 0.067
I6: L -0.697, E -0.276, D -0.201, S -0.189, N -0.419, Y -0.699, F -0.283, H -0.133, V 0.262
N10: A -0.598, V -0.852, G -0.388, F -0.85, K -0.341, T -0.466, Q -0.738, Y -0.989, S -0.025, H -0.298, M -0.598, L -1.01, W -0.549, R -0.409, C -0.054, I -1.4, E -0.786, D -0.154
L11: D 0.067, R -0.104, N 0.242, F 0.015, M 0.355, S 0.193, T 0.353, G 0.094, E 0.058, C -0.195, Y 0.064, K 0.005, I 0.214, H 0.293
D1: F 0.073, E -1.19, S -0.237, V -0.184, R -1, L -0.43, C -0.283, A -0.69, G -0.901, Y -0.298
I9: F -0.075, L 0.026, E -0.088, D -0.345, R 0.064, Q -0.032, S -0.098, G -0.159, V 0.04, C -0.123, T -0.012, A -0.111
R5: T -0.244, N -0.349, D -0.709, C -0.27, P -0.004, S -0.303, K 0.124, G -0.374, W -0.906, M -0.242, V -0.372, Q -0.493, I -0.39, F -0.451, L -0.844
D3: H 0.089, V -0.335, T -0.182, I -0.54, W -0.53, Q -0.109, R -0.256, A -0.283, M -0.063, C -0.749, S -0.137, L -0.122, G -0.384, E 0.106, F -0.259
